# Assay: soluble on expression in E. coli; label from the status in PepcDB or PDB records
row,Sequence,soluble on expression in E. coli
1,MGSDKIHHHHHHMALEPQIKSAPTPVILIVEPYGGSIRQQNPNLPMVFWDDAALTRGDGIFETLLIRDGHACNVRRHGERFKASAALLGLPEPILEDWEKATQMGIESWYSHPNAGEASCTWTLSRGRSSTGLASGWLTITPVSSDKLAQREHGVSVMTSSRGYSIDTGLPGIGKATRGELSKVERTPAPWLTVGAKTLAYAANMAALRYAKSNGFDDVIFTDGDRVLEGATSTVVSFKGDKIRTPSPGGDILPGTTQAALFAHATEKGWRCKEKDLSIDDLFGADSVWLVSSVRGPVRVTRLDGHKLRKPDNEKEIKALITKALG,not soluble
2,MGRGSEFGIFAFTDSVFEITESVGRFELKVMRYSGARGTVIVPYWTENDTATESKDYEGARGELVFENNESEKFIDLFILEESSYEKDVSFKVHIGEPRLAPDDGLAAKIKEVEKKPVQDLTELDRILLLSKPRNGELTTAYVRIRESQEFKATVDKLVAKA,soluble
3,ANSVQQQLEALEKSSGGRLGVALINTADNSQILYRADERFAMCSTSKVMAAAAVLKQSESDKHLLNQRVEIKKSDLVNYNPIAEKHVNGTMTLAELGAAALQYSDNTAMNKLIAHLGGPDKVTAFARSLGDETFRLDRTAPTLNTAIPGDPRDTTTPLAMAQTLKNLTLGKALAETQRAQLVTWLKGNTTGSASIRAGLPKSWVVGDKTGSGDYGTTNDIAVIWPENHAPLVLVTYFTQPEQKAERRRDILAAAAKIVTHGF,soluble
4,MLVLFEVAAGYAVFKLSNEKKLKNVDNIWEEFSTAEKAQENLQLVSFKKFKTTAGAVEATSEITEGKLSKTLKKLLKSSVDETEKLAVGDAKLGNLIKEKLSLNCVHDSSINELMRGVRAHIEDLLAEHKEEMNAMNLAVAHSLARYKVKFNPEKIDTMIVQAVSLLDDLDKELNNYVMRVREWYGWHFPELGKTIQDHQAYAKIIKAIGMRQNCINTDLSSILPEELEEKVKEDAEISMGTDISDIDLIHIKGLCDQVIELSAYRAQLFDYLKNRMTALAPNLTVLLGELVGARLISHAGSLVSLAKAPASTIQILGAEKALFRALKTKKDTPKYGLIYHAQLITQAPPKVKGKMARKLAAKCSLATRIDALSDESATNEIGIECRAALENVLRTESERGPSKNKSFGSHRHDKYEFKSETYEYDASADTPASRKHKRFDDNEESTNAIKKMKIEEVKEEDEAEPEKKKKKKEKKAKKADTDSDEE,not soluble
5,MGSDKIHHHHHHMSLYLDDTLSRIVELDLKDTRIVPFLAGEPGIGKTSFIYGIGERAGYKVFSISVNTLADKGDLTGARTLQDPADGKWKQMFFPHATFVEANDYALANPNETVVILLDEINRTDSDVTSASMTISTERRVGTTDLAPNVRLAVTGNLTGNVTHLDSASLTRFSLYEVKPSAETFMNIMGGRLNKYIRTVLTKYPEYIFMKPTTATALITTGDDDDDHTTNAKQMMDFNAVLGSDQDMVQFTAPRTIEGLSVWLNNADDDFLRLLLQEKVDGLARSMSLLQATLESHTGDTAFTAEVLSEMTNDLLSSASQAPSGPIKPFVYDRLAAAPSNTVLEQEVHTLSLNDRADVLLFALHDTVNNAAPSIIAHLASEGVLDELPKDRISKIVSLGPVPTANYHALTRQDTTLTRNLGPAVLGFLES,not soluble
6,STAREQPIFSTRAHVFQIDPATKRNWIPAGKHALTVSYFYDATRNVYRIISIGGAKAIINSTVTPNMTFTKTSQKFGQWADSRANTVYGLGFASEQHLTQFAEKFQEVKEAARLARE,soluble
7,MGHHHHHHSHPPCRPCRYKKYVFLDPLAGAVTKTHVMLGAETEEKLFDAPLSISKREQLEQQVGGAGQRWRQVQWPRALPELLSSQGCWALYSTHGRCTQGLVGCPCRSLSPLTCPCLILQVPENYFYVPDLGQVPEIDVPSYLPDLPGIANDLMYIADLGPGIAPSAPGTIPELPTFHTEVAEPLKTYKMGY,not soluble
8,MEEEEYEQIPQENPPEELSQDPVLELSGGLREKEQKTPRRLRLILMGKTGSGKSATGNSILGRDVFESKLSTRPVTKTSQRRSREWAGKELEVIDTPNILSPQVSPEVADAICQAIVLSAPGPHAVLLVTQLGRFTDEDQQVVRRLQEVFGVGVLGHTILVFTRKEDLAGGSLEDYVRETNNQALAWLDVTLARRHCGFNNRAQGEEQEAQLRELMEKVEAIMWENEGDYYSNKAYQYTQQNFRLKELQERQVSQGQGSEDVPGEESWLEGLSQIQKESEEAHRCLLGKADL,soluble
9,MIVHELTDIGHLFTEQLQEGYYVIRETYQNVLVEPEDGDTVRQVDAGTEEVVTIVFDPGDEYSLICLDTYTFADGIPSLAELKETIAAEYDVFVNDRWAAPSL,not soluble
10,MAKAAAGKKASPVKRVKKGGKAKDPNAPKRAMSAFFFWMQENRERIKKPGMGVADVAKAAGVEWGKLTDKSRWEKKAADDKKRYEVDIANYKKSQ,soluble
11,MGSDKIHHHHHHMLTKRQLLVLKEIIRLFTESGQPVGSKTLMQELPVHVSSATIRNDMAALEDAGLITKTHSSSGRVPSTQGYRYYLDHLVEPVRVSRHDLATIKQELGQRYSKMDEIVAQSAQILSNLTSYTAISLGPEVNNIKLTGFRLVPLGNHQVMAILVTNNGNVENQVFTVPPSISFDELEKAIRIVNDQLVGLPLVQVAQRLRTDVPSMLMQYLTSPDGFLDIFGNVLKSAASERFYVGGRLNLMDYLGDSDIHELKKIMSLIDADHGDLTELLGGPIRQTPVQVRLGPELKPIDLANLSLITASYDVGGHGTGMIALLGPTQMPYSKMIGLLDVFREELAKRLTDYYANFDQ,not soluble
12,MSTSADYKINQQQIVCVASFLSKEGKTEALIAALASLIPDTRREAGCIRYELNVSRDEPRRVTFVEKFVDIAAFDEHCAKDAIQHYFHQVMPELVESFHVETYHQVIA,soluble
13,LGKLDVLKVSAPWLASLRDELDQTCFLAVWGNKGPTVVYVEPSMGAVTLVTQIGSVLPLLSSSTGLVFDSFLAQGETALLREQETPRLSADQLHEVERHIKQIRATGVHQIQGMLMPGINAASSPLFAMGNKLVGVITVVGPGSVLNDKAQGQAARRLLETATAISERMGGSQLRS,soluble
14,MTIKNVICDIDGVLMHDNVAVPGAAEFLHGIMDKGLPLVLLTNYPSQTGQDLANRFATAGVDVPDSVFYTSAMATADFLRRQEGKKAYVVGEGALIHELYKAGFTITDVNPDFVIVGETRSYNWDMMHKAAYFVANGARFIATNPDTHGRGFYPACGALCAGIEKISGRKPFYVGKPSPWIIRAALNKMQAHSEETVIVGDNLRTDILAGFQAGLETILVLSGVSSLDDIDSMPFRPSWIYPSVAEIDVI,soluble
15,MSLVALTEDTQANANIGRLTVQTVEIADETTAIRCLDWDRERFDIEFGLRNGTTYNSFLIKGEKIALVDTSHRKFEKLYLEIVAGLIDPNTIDYLIVSHTEPDHSGLVKDILQLAPNITIVGAKVAIQFLENMVHQPFKSLQVKSGERLDLGNGHSLEFVSAPNLHWPDTILTYDHKTGILYTCDVFGMHYCDDQTYDENFFAIEEDFKYYYDCLMGPNARSVLAALKRIENLAIKTVATGHGPLLQVHISEWLGRYKNWSLEQAKTETLVALFYAEDYGYSEHLVHILGHGCTKTGVAVELIDLNTAEPQEVRELVTQASGLVIAMPSQYSLTAQAALNTILAAVHHKQAIGLLESGGGEDEPVFPLRNKFQELGLVEAFPPILIKEAPAQTTEQLCEEAGTDIGQWLTRDRTIKQIKSINTDLEKALGRISTGLYIITTKKGEIQGAMFASWVTQASLNPLGVAIAVSKERAIESLMQVGDHFVLNVLEEDNYQGLMKHFLKRFAPGADRFAGIKTYPATDGSPILAESLAYTECEITSRMDCGDHWIIYSTVHVGRVANVHAMTAVHHRKVGNHYEGHHHHHH,soluble
16,MNFPISTIRIGGWVVVAKNPDDIVAKFYFAKKKLIWEFLFGEPETNTLRLKRKIEIQWNDVSSFEESISSRDETGILKIELKKRPTFFIETNPQAGKHTQWKQLDHDFTGDHASNYRRHTLHFPPGVLQKNLEKLVTDSFWSKLYEVPFPVHESRYFDSGFENNSSRNSHSHTVGFNVNNGPQHHFSQGIGGVGVGEGNFSMANGGWQRNSYSPVNSLNYNTANEFFGMQATPPSSQVVNEHYNTQNDFTGSQFGYHMNQDEIQKILESQAYAVPDTQTKLMSSAMNNVPKYPQAGSCLESMLFWYEHRRRFQQ,soluble
17,MTSSTETTSTTPQVAVNDIGNEEAFLAAIDETIKYFNDGDIVDGVIVKVDRDEVLLDIGYKTEGVIPSRELSIKHDVDPNEVVKVGDEIEALVLQKEDKEGRLILSKKRAQYERAWGTIEKIKEEDGIVTGTVIEVVKGGLILDIGLRGFLPASLVEMRRVRDLQPYVGKELEAKIIELDKNRNNVVLSRRAWLEQTQSEVRQTFLTTLQKGQVRSGVVSSIVNFGAFVDLGGVDGLVHVSELSWKHIDHPSEVVEVGQEVTVEVLDVDMDRERVSLSLKATQEDPWQQFARTHQIGQVVPGKVTKLVPFGAFVRVDEGIEGLVHISELAERHVEIPEQVVQVNDEIFVKVIDIDLERRRISLSLKQANEAFGGDPASVEFDPTLYGMAASYDDQGNYIYPEGFDPETNDWLEGFESQREVWETQYAEAQQRFEQHQAQVIKSREADAQAEAEGAAAPAAGGSGAGVSGGSYSSESDDNSGALASDEALAALREKLAGGQSLEHHHHHH,soluble
18,MAGATDQRRQEVLRAIVADYIASQEPVGSKALLERHNLKVSSATIRNDMAVLESEGYIVQQHASSGRIPTEKAYRTFVDSINDIKPLSVAERRAILGFLERGVDLEDVLKRSVQLLSQLTRQAAVIQLPNLNVSRVKHCEVVLLSPVRLLLVLITDNGRVEQRNVEVDQICEPEHVAKMRDVLNRALDNKTLSDASASLAELAAGEILVDPDIQPMILRCATVLIETLVEQPNDRLILAGASNLTHIAREMPSSLPAMLEALEEQVVVLKLLTNVRDLGHVSVLIGEENEDEQLRGTSVVTTGYGAQGATLGGLGVVGPTFMDYSGTMSKVYAVAHYVSRVLSGG,not soluble
19,MKFTETSLKLNPLTEITFFLTFGAKTMSNQWNSGIHDRKLKEEICEIGRRVYNKGFAAANDGNISIRVGENEVLCSPTMICKGFMKPDDICAVDLDGNQIAGTRKRTSEILLHLAIMKERPDVKAVVHCHPPHATAFAVAREPIPQCVLPEVEVFMGEVPMAPYETPGGQKFADTVVPFLKGGTNTIILTGHGTVTFGKSLEDAYWKTEILDAYCNILLLSKQLGRVTYFTENETRELLDLKKKLGFDDPRFHVEDCDLCGNSAFRDGYKEGIPQQKSFEPAPSYPGYLSKPSTQATPATNNGDSDQLIKAITDQVMSALGK,not soluble
20,MHHHHHHSSGRENLYFQGQKDGIFKVMLVGESGVGKSTLAGTFGGLQGDSAHEPENPEDTYERRIMVDKEEVTLVVYDIWEQGDAGGWLRDHCLQTGDAFLIVFSVTDRRSFSKVPETLLRLRAGRPHHDLPVILVGNKSDLARSREVSLEEGRHLAGTLSCKHIETSAALHHNTRELFEGAVRQIRLRRGRNHA,soluble
21,MKGLKERQDRRLGAFLGLAVGDALGAQVEGLPKGTFPEVREMKGGGPHRLPPGFWTDDTSQALCLAESLLQRGFDPKDQMDRYLRWYREGYRSATGVCFGLGHATRRALERYAATGDPYAGDEAGAGNGPLMRLAPLVLAYENHPDLLSLARRAARTTHGAREALEATEVLAWLLREALRGAPKEALLALEPFRGADLHPALRRVVEGGFWEAPEEGPGYAPGTLAAALWAFARGRDFEEGMRLAVNLGGDADTVGAVYGQLAGAYYGLGAIPGRWLRALHLREEMEALALALYRMSMASPRE,soluble

# Source: the DeepSol protein solubility set
